Experimental data as given in patent US20240358739A1, “COMPOSITION AND METHOD TO TREAT CACHEXIA” (THE TRUSTEES OF INDIANA UNIVERSITY, priority 2021, published 2024).

Legend:
[1] = tested on: osteoclast precursor cells; assay: Osteoclast differentiation assay, pre-osteoclast cultures exposed to rmIGFBP1, TRAP stain; format: cell-based, mice; settings: 50 ng/mL recombinant IGFBP1, 48 h
Protocol: The quantification of osteoclast differentiation in pre-osteoclast cultures exposed to rmIGFBP1 and stained for TRAP (n=5) is shown in FIG. 6. Furthermore, quantification of osteoclast differentiation in pre-osteoclasts co-cultured with AML12 previously exposed to CRC and treated with anti-IGFBP1 antibody (n=5) is shown in FIG. 7. The osteoclast differentiation assay was conducted as follows:
Bone marrow cells were isolated from at least two 4-month-old wild-type male C57BL/6 mice by flushing the bone marrow out from both tibiae and femora with 10% FBS and 1% P/S-α-MEM. Cells were cultured for 48 h. Non-adherent cells were then collected and 14×10^4 cells/cm2 were seeded on 96-well plates and cultured with RANKL 80 ng/ml (PeproTech) and M-CSF 20 ng/ml (PeproTech) added to induce osteoclast differentiation, the media was changed every 2 days. After 3 days of differentiation, 50 ng/mL of recombinant IGFBP1 or Vehicle (Control) was added to the osteoclast differentiation media for 48 h, after which cells were fixed for staining. […] Images were acquired using Axio Observer. Z1 motorized microscope (Zeiss, Oberkochen, Germany).

C2C12 myotubes = assay: C2C12 myotube size after exposure to recombinant IGFBP1; format: cell-based; settings: recombinant IGFBP1 100 ng/ml, 48 hours
Protocol: (§1) C2C12 myotubes were produced by exposing fully confluent myoblasts to DMEM containing 2% horse serum, 2 mM L-glutamine and 1% P/S, replacing the media every other day for 5 days. At 5 days post differentiation, myotubes were exposed to recombinant IGFBP1 (100 ng/ml) or empty vehicle control for 48 hours. FIG. 9 presents the results.
For myotube size: Differentiated C2C12 myotubes were fixed in ice-cold acetone: methanol for ten minutes, blocked for 1 h at room temperature and incubated overnight at 4° C. with an anti-myosin heavy chain antibody (MF-20, 1:100, Developmental Studies Hybridoma Bank). The following day, myotubes were incubated for 1 h at room temperature with an AlexaFluor 594-labeled secondary antibody (A11032, 1:500; Invitrogen). Myotubes were observed under an Axio Observer.Z1 motorized microscope (Zeiss) and analysis was performed by measuring the diameter of the narrowest portion along the multi-nucleate fibers (n=600 fibers per condition) using ImageJ software.

HSMM myotubes = assay: HSMM myotube atrophy after recombinant IGFBP1; format: cell-based, human
ITGB1 signaling = assay: Western blotting of ITGB1 signaling in myotubes exposed to recombinant IGFBP1; format: cell-based
Protocol: as §1
For western blots (FIG. 9): Cell layer protein extracts were obtained by homogenizing entire well surface in ice-cold RIPA buffer [150 mM NaCl, 1.0% NP-40, 0.5% sodium deoxycholate, 0.1% SDS and 50 mM Tris (pH 8.0)] supplemented with inhibitor cocktails for proteases (11697498001, Roche) and phosphatases (78428, Thermo Fisher Scientific). Following a 10-min incubation on ice, cellular debris was removed by centrifugation (15 min, 14,000 g at 4° C.), the supernatant was collected and protein concentration was assessed using the BCA protein assay method (Thermo Fisher Scientific). Protein extracts (30 μg) were electrophoresed in 4-15% gradient SDS Criterion TGX precast gels (Bio-Rad) and transferred to nitrocellulose membranes (30 min at 100 V; Bio-Rad). […] Blots were again serially washed using PBST and then visualized and quantified using the Odyssey Infrared Imaging System (LI-COR Biosciences). […]

B1: recombinant IGFBP1: recombinant insulin-like growth factor binding protein 1 (protein)
chain: APQPWHCAPCTAERLGLCPPVPASCPEISRPAGCGCCPTCALPMGAACGVATARCAQGLSCRALPGEPRPLHALTRGQGACVPEPAAPATSTLFSSQHEEAKAAVVSADELSESPEMTEEQLLDSFHLMAPSREDQPILWNAISTYSSMRAREIADLKKWKEPCQRELYKVLERLAAAQQKAGDEIYKFYLPNCNKNGFYHSKQCETSLDGEAGLCWCVYPWSGKKIPGSLETRGDPNCHQYFNVHN
differentiation of osteoclast precursor cells [1]: sufficient to promote differentiation
differentiation of osteoclast precursor cells ([1]; listed as Recombinant IGFBP1): promoted
atrophy of C2C12 myotubes (C2C12 myotubes): promoting atrophy
atrophy of C2C12 myotubes (C2C12 myotubes; listed as Recombinant IGFBP1): promoted
atrophy of HSMM myotubes (HSMM myotubes): promoting atrophy
ERK phosphorylation (ITGB1 signaling): increased
FAK phosphorylation (ITGB1 signaling): increased
